The target of this assay is angiotensin-converting enzyme-2 (ACE2) with the neck domain (UniProt Q9BYF1). Put plainly: mass photometry; proteins measured alone, non-labelled, in solution; counts of monomer, dimer and trimer species; ACE2 at 10 nM.

For orientation: stoichiometry N means the number of molecules, sites or subunits per partner or assembly.

The substance “angiotensin-converting enzyme-2 (ACE2) with the neck domain (from UniProt Q9BYF1 18-740) (receptor)” yielded a stoichiometry N of 2.
